From article PMC4577212, “X-Ray Structure and Mutagenesis Studies of the N-Isopropylammelide Isopropylaminohydrolase, AtzC” (PLoS ONE, 2015)

B1: N-isopropylammelide isopropylaminohydrolase AtzC from Pseudomonas sp. strain ADP, His-tagged (enzyme, UniProt O52063 1-403, looked up)
chain: MSKDFDLIIRNAYLSEKDSVYDIGIVGDRIIKIEAKIEGTVKDEIDAKGNLVSPGFVDAHTHMDKSFTSTGERLPKFWSRPYTRDAAIEDGLKYYKNATHEEIKRHVIEHAHMQVLHGTLYTRTHVDVDSVAKTKAVEAVLEAKEELKDLIDIQVVAFAQSGFFVDLESESLIRKSLDMGCDLVGGVDPATRENNVEGSLDLCFKLAKEYDVDIDYHIHDIGTVGVYSINRLAQKTIENGYKGRVTTSHAWCFADAPSEWLDEAIPLYKDSGMKFVTCFSSTPPTMPVIKLLEAGINLGCASDNIRDFWVPFGNGDMVQGALIETQRLELKTNRDLGLIWKMITSEGARVLGIEKNYGIEVGKKADLVVLNSLSPQWAIIDQAKRLCVIKNGRIIVKDEVIVA
notes: AtzC, N-isopropylammelide isopropylaminohydrolase (E.C. 3.5.99.4), Pseudomonas sp. strain ADP; The tag carries a thrombin site; also called wild-type AtzC; tagged AtzC protein; source: E. coli BL21 (λDE3), purified (Ni-NTA, Superdex 200 SEC); not shown: His-tag, N-terminal, kept
B2: N-isopropylammelide isopropylaminohydrolase AtzC from Pseudomonas sp. strain ADP, thrombin-treated (His-tag removed) (enzyme, UniProt O52063 1-403, looked up)
chain: B1 chain
notes: AtzC, N-isopropylammelide isopropylaminohydrolase (E.C. 3.5.99.4), Pseudomonas sp. strain ADP; unmodified atzC gene (GenBank U66917.2) in pETCC2; tag removed by thrombin in the crystallisation sample without further purification; One Zn2+ ion per monomer; malonate in the active site of the crystal; also called WT; native protein; source: E. coli BL21 (λDE3), purified (Ni-NTA, Superdex 200 SEC), …

Legend:
[1] = target: the molecule itself; assay: SEC; Superdex 200 prep-grade, 130 mL column, 50 mM TRIS pH 7.5, 100 mM NaCl; native molecular mass of ~210 kDa
[2] = target: the molecule itself; assay: crystal structure; thrombin-treated protein, 2.4 M sodium malonate pH 7; space group C2, half of the tetramer in the asymmetric unit; 1.84 Å; oligomer assessed with PISA

Row | Protein | stoichiometry N [1] | stoichiometry N [2]
1 | B1 | 4 | –
2 | B2 | – | 4
